Among the data in US20040202655A1 are Kd values, retold here.

Usually Kd stands for the free concentration of one partner at which half of the binding sites on the other are occupied at equilibrium, for simple one-to-one binding. Lower therefore signals higher affinity.

Assay [1] has as its target IGF1R extracellular domain (human) (UniProt P08069). Nature of the assay: SPR (BIAcore), IgG captured on mouse anti-human IgG, IGF1R extracellular domain in flow.
Assay [2] shares this target. Nature of the assay: SPR (BIAcore), IgG captured on protein A, IGF1R extracellular domain in flow. On the technique in general: In SPR one partner is held on a chip, and binding of the other changes the refractive index at the surface.

B1: PINT-9A2 IgG (antibody, V domains shown)
VH: QVQLVQSGAEVRKPGASVKVSCKTSGYTFRNYDINWVRQAPGQGLEWMGRISGHYGNTDHAQKFQGRFTMTKDTSTSTAYMELRSLTFDDTAVYYCARSQWNVDYWGRGTLVTVSS
VL: LNFMLTQPHSVSESPGKTVTISCTRSSGSIASNYVQWYQQRPGSSPTTVIFEDNRRPSGVPDRFSGSIDTSSNSASLTISGLKTEDEADYYCQSFDSTNLVVFGGGTKVTVLG
As to B1, the Kd is 0.138 nM in assay [1] and 0.24 nM in assay [2].

B2: PINT-8A1 IgG (antibody, V domains shown)
VH: EVQLVQSGAEVKKPGESLTISCKGPGYNFFNYWIGWVRQMPGKGLEWMGIIYPTDSDTRYSPSFQGQVTISVDKSISTAYLQWSSLKASDTAMYYCARSIRYCPGGRCYSGYYGMDVWGQGTMVTVSS
VL: SELTQDPAVSVALGQTVRITCQGDSLRSYYASWYQQKPGQAPVLVIYGKNNRPSGIPDRFSGSSSGNTASLTITGAQAEDEADYYCNSRDSSGNHVVFGGGTKLTVLG
Take B2: the values for the Kd in assay [1] and in assay [2] were 0.503 nM and 0.109 nM, respectively.
